# B1: GST-Katanin (natural protein)
# chain: MSLLMISENVKLAREYALLGNYDSAMVYYQGVLDQMNKYLYSVKDTYLQQKWQQVWQEINVEAKHVKDIMKTLESFKLDSTPLKAAQHDLPASEGEVWSMPVPVERRPSPGPRKRQSSQYSDPKSHGNRPSTTVRVHRSSAQNVHNDRGKAVRCREKKEQNKGREEKNKSPAAVTEPETNKFDSTGYDKDLVEALERDIISQNPNVRWDDIADLVEAKKLLKEAVVLPMWMPEFFKGIRRPWKGVLMVGPPGTGKTLLAKAVATECKTTFFNVSSSTLTSKYRGESEKLVRLLFEMARFYSPATIFIDEIDSICSRRGTSEEHEASRRVKAELLVQMDGVGGTSENDDPSKMVMVLAATNFPWDIDEALRRRLEKRIYIPLPSAKGREELLRISLRELELADDVDLASIAENMEGYSGADITNVCRDASLMAMRRRIEGLTPEEIRNLSKEEMHMPTTMEDFEMALKKVSKSVSAADIERYEKWIFEFGSC
# Biological target: MBP-VPRBP (UniProt Q9Y4B6 1-1507)
# Sequence (Q9Y4B6 whole entry): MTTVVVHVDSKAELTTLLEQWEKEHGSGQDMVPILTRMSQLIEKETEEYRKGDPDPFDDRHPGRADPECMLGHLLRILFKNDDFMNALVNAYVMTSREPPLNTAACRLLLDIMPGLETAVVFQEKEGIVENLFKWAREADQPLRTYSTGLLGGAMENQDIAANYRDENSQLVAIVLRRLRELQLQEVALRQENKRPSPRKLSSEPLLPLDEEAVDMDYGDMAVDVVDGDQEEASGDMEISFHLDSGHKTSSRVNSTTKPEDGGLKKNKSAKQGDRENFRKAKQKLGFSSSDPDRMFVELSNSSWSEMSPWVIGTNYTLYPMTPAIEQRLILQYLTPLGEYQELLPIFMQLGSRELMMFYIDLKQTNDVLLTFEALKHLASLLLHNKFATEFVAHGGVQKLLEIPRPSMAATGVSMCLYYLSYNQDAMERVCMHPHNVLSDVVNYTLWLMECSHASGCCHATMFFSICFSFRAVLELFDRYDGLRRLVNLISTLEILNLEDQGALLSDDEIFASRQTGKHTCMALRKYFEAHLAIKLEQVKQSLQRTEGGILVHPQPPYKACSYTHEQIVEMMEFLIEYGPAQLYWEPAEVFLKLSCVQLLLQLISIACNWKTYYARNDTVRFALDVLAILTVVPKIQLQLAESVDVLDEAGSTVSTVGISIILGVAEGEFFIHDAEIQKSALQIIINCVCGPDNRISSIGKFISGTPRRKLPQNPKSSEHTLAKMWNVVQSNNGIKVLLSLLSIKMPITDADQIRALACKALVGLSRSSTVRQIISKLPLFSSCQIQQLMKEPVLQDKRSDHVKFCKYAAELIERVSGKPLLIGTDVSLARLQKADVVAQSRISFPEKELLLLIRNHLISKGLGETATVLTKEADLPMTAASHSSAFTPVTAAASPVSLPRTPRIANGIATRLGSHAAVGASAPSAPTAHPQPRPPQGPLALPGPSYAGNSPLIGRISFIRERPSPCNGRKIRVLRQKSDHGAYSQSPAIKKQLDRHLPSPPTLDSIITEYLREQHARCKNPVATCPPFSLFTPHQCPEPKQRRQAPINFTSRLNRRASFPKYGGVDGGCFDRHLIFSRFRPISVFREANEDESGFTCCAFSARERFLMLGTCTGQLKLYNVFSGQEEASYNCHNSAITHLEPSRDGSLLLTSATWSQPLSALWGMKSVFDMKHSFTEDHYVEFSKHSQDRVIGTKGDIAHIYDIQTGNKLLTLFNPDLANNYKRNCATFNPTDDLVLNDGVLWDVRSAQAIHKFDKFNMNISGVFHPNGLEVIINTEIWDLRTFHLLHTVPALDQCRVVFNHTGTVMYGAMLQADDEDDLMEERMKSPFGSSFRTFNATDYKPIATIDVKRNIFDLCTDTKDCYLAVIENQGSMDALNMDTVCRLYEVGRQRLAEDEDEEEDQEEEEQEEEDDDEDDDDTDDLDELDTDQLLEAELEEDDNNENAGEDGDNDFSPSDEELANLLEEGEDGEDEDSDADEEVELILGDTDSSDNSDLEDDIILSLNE
# Assay: pull-down
binder,measurement,value
B1,binding result,binds

# Source: article PMC2754075 (Nature cell biology, 2009)
